Paper PMC5677968, “Familial STAG2 germline mutation defines a new human cohesinopathy” (NPJ Genomic Medicine, 2017)
Residue numbers refer to the chain shown, from its start. Square brackets hold non-standard residues; d marks the D form. Ends that are not written are not given here. pT = C[C@@H](OP(=O)(O)O)[C@H](N)C(=O)O

What was measured:
[1] = target: Myc-STAG2 p.Ser327Asn (human) (UniProt Q8N3U4); experiment: co-IP; anti-Myc beads, lysates of HeLa Tet-On cells transfected with Myc-STAG2 WT or mutants; 3 h at 4 °C; washes with lysis buffer containing 200 mM NaCl; blots for endogenous proteins
[2] = target: T1, STAG2(80–930)–SCC1(281–394) complex, WT (human, UniProt Q8N3U4-2 80-930; O60216 281-394); experiment: ITC; MicroCal iTC200, 20 °C; 20 uM STAG2(80–930)–SCC1(281–394) complex in the cell, titrated with 300 uM pSGO1 peptide; 20 mM Tris-HCl pH 7.7, 200 mM NaCl, 5 mM TCEP; conditions: both partners purified
T1 construct: STAG2 (SA2), human, residues 80-930, in pET28a; SCC1 (RAD21), human, residues 281-394, in pGEX-6p1; also called purified STAG2–SCC1 WT; SA2–SCC1 complex; source: E. coli, co-expressed, purified (Glutathione Sepharose 4B, PreScission cleavage, ion exchange, size exclusion)
T1 sequence (looked up) 1: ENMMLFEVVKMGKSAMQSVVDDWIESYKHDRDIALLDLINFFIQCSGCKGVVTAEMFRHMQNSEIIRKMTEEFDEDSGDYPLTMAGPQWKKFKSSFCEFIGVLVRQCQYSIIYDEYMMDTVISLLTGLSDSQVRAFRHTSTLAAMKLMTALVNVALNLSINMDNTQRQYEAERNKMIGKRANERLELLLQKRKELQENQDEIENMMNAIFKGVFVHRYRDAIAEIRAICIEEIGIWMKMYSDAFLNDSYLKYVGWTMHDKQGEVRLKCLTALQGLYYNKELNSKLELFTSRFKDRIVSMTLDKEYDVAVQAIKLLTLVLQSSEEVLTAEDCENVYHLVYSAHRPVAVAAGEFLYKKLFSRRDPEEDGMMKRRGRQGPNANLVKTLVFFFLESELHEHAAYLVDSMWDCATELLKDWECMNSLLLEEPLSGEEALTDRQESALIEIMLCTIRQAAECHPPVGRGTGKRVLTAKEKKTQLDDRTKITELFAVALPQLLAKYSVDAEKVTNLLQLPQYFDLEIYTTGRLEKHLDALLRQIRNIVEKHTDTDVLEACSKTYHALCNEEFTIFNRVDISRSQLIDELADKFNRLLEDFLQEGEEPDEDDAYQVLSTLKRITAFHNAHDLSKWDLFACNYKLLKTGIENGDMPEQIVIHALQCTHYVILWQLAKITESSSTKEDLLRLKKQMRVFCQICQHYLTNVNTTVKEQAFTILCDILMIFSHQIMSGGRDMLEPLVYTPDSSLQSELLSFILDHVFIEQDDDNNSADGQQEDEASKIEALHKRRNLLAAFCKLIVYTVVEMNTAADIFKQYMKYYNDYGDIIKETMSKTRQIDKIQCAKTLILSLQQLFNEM
T1 sequence (looked up) 2: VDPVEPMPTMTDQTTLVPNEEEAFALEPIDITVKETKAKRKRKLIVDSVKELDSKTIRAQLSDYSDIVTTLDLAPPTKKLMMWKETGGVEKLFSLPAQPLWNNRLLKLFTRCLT

[3] = target: T2, STAG2(80–930) p.Ser327Asn–SCC1(281–394) complex (human, UniProt Q8N3U4-2 80-930; O60216 281-394, p.Ser327Asn); experiment: as above; conditions: both partners purified
T2 construct: STAG2 (SA2), human, residues 80-930, patient germline variant p.Ser327Asn; SCC1 (RAD21), human, residues 281-394, in pGEX-6p1; The methods describe only the WT STAG2(80–930) vector; also called purified STAG2–SCC1 p.Ser327Asn; SA2–SCC1 p.Ser327Asn; source: E. coli, co-expressed, purified (Glutathione Sepharose 4B, PreScission cleavage, ion exchange, size exclusion)
T2 sequence (looked up) 1: T1 sequence (looked up) 1 with S248N
T2 sequence (looked up) 2: T1 sequence (looked up) 2

Sequence of Myc-STAG2 p.Ser327Asn (human) (Q8N3U4 other isoform, or with tags, fused parts or gaps p.S327N): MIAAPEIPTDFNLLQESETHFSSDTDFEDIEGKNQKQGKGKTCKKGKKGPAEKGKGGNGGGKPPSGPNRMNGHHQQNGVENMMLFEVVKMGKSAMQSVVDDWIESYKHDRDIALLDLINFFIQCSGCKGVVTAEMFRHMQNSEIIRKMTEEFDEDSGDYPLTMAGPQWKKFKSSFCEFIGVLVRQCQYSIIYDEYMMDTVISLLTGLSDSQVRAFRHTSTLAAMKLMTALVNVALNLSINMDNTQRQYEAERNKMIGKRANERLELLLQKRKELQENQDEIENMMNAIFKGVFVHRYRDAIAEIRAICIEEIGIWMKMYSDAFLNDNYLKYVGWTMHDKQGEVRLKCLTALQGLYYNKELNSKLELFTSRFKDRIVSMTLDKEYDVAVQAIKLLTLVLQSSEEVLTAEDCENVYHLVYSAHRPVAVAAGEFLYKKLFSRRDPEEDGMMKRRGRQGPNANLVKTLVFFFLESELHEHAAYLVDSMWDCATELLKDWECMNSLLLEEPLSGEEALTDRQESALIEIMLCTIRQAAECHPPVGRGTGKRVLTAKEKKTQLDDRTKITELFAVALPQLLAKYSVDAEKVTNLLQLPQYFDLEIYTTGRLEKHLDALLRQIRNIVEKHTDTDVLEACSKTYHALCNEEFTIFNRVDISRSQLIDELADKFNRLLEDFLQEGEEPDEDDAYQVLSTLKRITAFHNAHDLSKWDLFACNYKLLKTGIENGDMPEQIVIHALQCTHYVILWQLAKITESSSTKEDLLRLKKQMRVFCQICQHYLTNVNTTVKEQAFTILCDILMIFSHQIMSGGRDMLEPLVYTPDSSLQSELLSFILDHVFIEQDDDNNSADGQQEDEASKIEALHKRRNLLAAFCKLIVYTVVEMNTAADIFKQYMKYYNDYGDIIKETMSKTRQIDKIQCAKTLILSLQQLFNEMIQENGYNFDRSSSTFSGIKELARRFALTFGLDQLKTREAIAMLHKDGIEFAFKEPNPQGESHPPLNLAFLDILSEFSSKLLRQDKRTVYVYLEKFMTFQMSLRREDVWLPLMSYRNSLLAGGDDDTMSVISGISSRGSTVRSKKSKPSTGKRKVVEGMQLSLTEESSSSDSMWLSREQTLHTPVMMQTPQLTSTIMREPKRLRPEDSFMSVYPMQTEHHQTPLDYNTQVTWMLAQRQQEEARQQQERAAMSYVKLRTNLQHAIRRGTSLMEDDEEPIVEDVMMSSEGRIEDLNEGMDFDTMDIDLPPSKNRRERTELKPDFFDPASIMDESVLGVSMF

Molecule: endogenous SMC1 (from UniProt Q14683 1-1233) (natural protein)
- reduction of binding against WT [1]: 50%

B1: synthetic phospho-Thr346 SGO1 peptide containing residues 313–353 of human SGO1 (peptide, UniProt Q5FBB7 313-353, looked up)
peptide: KSENKKTVPQKKMHKSVSSNDAYNFNLEEGVHL[pT]PFRQKVS
notes: SGO1, human, residues 313-353; also called pSGO1; phospho-SGO1 peptide; source: synthetic peptide
- Kd [2]: 230 nM
- Kd [3]: 290 nM
